Values quoted from earlier work in publication PMC8811192.
Read-outs that look alike come from different tables or passages of the source.

Tests used:
OrxA (Homo sapiens) [1] = molecular target: OrxA (Homo sapiens) (UniProt O43612)
OrxA (Homo sapiens) [2] = molecular target: OrxA (Homo sapiens) (UniProt O43612); remark: listed apart in the source
OrxB (Homo sapiens) = OrxB (Homo sapiens) (UniProt O43612)

Kd (OrxA (Homo sapiens) [1]) [nM] | Kd (OrxA (Homo sapiens) [2]) [nM] | Kd (OrxB (Homo sapiens)) [nM] | Substance
25 | – | – | OrxR1 (from UniProt O43613)
– | 40 | 40 | OrxR2 (from UniProt O43614)
